Source: US20180334494A1 (UNIVERSITY OF VIRGINIA PATENT FOUNDATION, published 2018)
Changes are numbered by the printed parent chain.

B1: Fab 6 (Fab, V domains shown)
VH: EVQLVESGGGLVQPGGSLRLSCAASGFNVYYYYIHWVRQAPGKGLEWVASISPYYGYTSSYADSVKGRFTISADTSKNTAYLQMNSLRAEDTAVYYCARWSYDQSMSYKSGMDYWGQGTLVTVSS
VL: DIQMTQSPSSLSASVGDRVTITCRASQSVSSAVAWYQQKPGKAPKLLIYSASSLYSGVPSRFSGSRSGTDFTLTISSLQPEDFATYYCQQYSYSLVTFGQGTKVEIKR
B2: Fab 20 (Fab, V domains shown)
VH: EVQLVESGGGLVQPGGSLRLSCAASGFNISYSSIHWVRQAPGKGLEWVASIYSYSGYTSYADSVKGRFTISADTSKNTAYLQMNSLRAEDTAVYYCARSYWYHVGSWHYTGMDYWGQGTLVTVSS
VL: B1 VL with Y91S, Y93S, V96I

Biological target: T1, C-terminal domain of Zaire Ebola virus Nucleoprotein (NP^Ct) (Zaire Ebola virus, UniProt P18272 641-739)
T1 construct: also called Zaire NP^Ct; Zaire EBOV NP^Ct
T1 sequence (P18272 641-739, tags left off): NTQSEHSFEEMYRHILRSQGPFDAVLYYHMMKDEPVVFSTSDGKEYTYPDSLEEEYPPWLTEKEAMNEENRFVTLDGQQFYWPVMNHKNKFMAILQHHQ
Assay: ITC

Row | Binder | Kd
1 | B1 | ~5 nM
2 | B2 | ~5 nM
